According to paper PMC11742319, “Phosphorylation regulates the chromatin remodeler SMARCAD1 in nucleosome binding, ATP hydrolysis, and histone exchange”:
Substitutions are numbered along the chain they refer to. Values belong to the molecule of their own block, whether it stands above or below them.

What was measured:
[1] = target: T1, 23A SMARCAD1, dephosphorylated (human) (UniProt Q9H4L7); assay: fluorescence polarization; conditions: FP: 50 mM HEPES pH 7.5, 2 mM DTT, 10% glycerol, 0.01% CHAPS, 0.01% NP-40, no added salt stated, room temperature 30 min, 10 nM nucleosome or DNA, 0-5 uM …
T1 sequence: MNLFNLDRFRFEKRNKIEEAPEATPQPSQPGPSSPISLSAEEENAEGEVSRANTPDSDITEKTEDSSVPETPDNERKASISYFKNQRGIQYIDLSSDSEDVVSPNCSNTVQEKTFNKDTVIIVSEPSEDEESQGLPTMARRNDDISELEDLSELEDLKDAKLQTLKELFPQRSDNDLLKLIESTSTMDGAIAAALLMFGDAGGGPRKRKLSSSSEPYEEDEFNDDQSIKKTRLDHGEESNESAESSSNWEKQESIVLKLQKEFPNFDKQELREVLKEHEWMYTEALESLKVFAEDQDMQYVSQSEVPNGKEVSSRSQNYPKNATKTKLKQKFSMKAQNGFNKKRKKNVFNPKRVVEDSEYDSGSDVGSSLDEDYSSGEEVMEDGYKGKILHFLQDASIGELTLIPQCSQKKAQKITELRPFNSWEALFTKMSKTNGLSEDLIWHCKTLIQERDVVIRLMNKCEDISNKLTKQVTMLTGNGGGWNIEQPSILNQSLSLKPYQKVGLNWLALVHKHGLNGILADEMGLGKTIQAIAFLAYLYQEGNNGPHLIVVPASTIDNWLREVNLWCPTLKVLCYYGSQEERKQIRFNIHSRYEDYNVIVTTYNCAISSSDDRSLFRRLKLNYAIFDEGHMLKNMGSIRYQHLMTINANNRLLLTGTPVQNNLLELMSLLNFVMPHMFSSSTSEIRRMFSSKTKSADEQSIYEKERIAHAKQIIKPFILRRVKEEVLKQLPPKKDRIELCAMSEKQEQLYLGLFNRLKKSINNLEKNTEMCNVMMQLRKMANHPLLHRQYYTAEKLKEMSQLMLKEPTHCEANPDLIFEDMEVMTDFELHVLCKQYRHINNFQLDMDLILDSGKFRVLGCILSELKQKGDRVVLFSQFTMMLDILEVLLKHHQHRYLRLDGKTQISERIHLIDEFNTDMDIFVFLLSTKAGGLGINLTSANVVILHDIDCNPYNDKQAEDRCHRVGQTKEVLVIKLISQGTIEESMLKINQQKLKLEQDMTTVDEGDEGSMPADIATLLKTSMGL

[2] = target: T2, 23A SMARCAD1, phosphorylated (human) (UniProt Q9H4L7); assay: fluorescence polarization; conditions: FP: 50 mM HEPES pH 7.5, 2 mM DTT, 10% glycerol, 0.01% CHAPS, 0.01% NP-40, no added salt stated, room temperature 30 min, 10 nM nucleosome or DNA, 0-5 uM …
T2 sequence: T1 sequence

[3] = target: T3, Δ350 SMARCAD1, dephosphorylated V974A;del1-350 (human) (UniProt Q9H4L7); assay: fluorescence polarization; conditions: FP: 50 mM HEPES pH 7.5, 2 mM DTT, 10% glycerol, 0.01% CHAPS, 0.01% NP-40, no added salt stated, room temperature 30 min; 10 nM nucleosome or DNA, 0-5 uM …
T3 sequence: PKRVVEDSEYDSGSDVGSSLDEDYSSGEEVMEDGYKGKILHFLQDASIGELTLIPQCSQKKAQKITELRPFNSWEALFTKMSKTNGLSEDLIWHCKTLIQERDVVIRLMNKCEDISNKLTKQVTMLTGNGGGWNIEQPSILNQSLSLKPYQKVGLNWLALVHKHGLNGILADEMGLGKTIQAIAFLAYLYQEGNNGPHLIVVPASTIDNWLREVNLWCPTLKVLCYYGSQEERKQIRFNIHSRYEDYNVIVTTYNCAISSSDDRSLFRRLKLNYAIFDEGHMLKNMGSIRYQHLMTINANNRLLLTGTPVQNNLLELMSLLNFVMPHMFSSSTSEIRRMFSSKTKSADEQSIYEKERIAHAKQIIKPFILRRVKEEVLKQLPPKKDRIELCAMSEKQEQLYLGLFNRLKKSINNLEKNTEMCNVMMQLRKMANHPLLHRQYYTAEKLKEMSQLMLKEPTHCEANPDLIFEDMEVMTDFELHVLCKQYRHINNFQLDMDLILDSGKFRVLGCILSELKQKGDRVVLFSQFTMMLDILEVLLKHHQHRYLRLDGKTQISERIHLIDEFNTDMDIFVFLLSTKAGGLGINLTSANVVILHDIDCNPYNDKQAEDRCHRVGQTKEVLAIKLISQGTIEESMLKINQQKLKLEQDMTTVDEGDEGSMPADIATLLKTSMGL

[4] = target: nucleosome: histone octamer with Alexa Fluor 488 on histone H4 E63C assembled onto a 165 bp DNA (human) (UniProt P04908)
[5] = target: (H3-H4)2 tetramer (fluorescently labeled with Alexa Fluor 488 on H4 at E63C) (human) (UniProt P68431); assay: fluorescence polarisation; 5 nM Alexa Fluor 488-labeled H2A-H2B dimer or (H3-H4)2 tetramer, SMARCAD1 titrated 0-2500 nM; 2 mM DTT, 10% glycerol, 50 mM HEPES pH 7.5, 0.01% CHAPS, 0.01% NP-40, 300 mM KCl; room temperature, 30 min; hyperbolic fit
[6] = target: nucleosome: histone octamer with Alexa Fluor 488 on histone H4 E63C assembled onto a 165 bp DNA (human) (UniProt P04908); assay: fluorescence polarisation; 10 nM Alexa Fluor 488-labeled nucleosome (165 bp DNA), SMARCAD1 titrated 0-5 μM; 2 mM DTT, 10% glycerol, 50 mM HEPES pH 7.5, 0.01% CHAPS, 0.01% NP-40; room temperature, 30 min; hyperbolic fit
[7] = target: T4, Δ350 SMARCAD1, dephosphorylated (human, UniProt Q9H4L7 351-1026, V974A;del1-350); assay: fluorescence polarization; dephosphorylated (CIP); FP: 50 mM HEPES pH 7.5, 2 mM DTT, 10% glycerol, 0.01% CHAPS, 0.01% NP-40, no added salt stated, room temperature 30 min; 10 nM nucleosome or DNA, 0-5 uM SMARCAD1; conditions: protein: recombinant; tags: 6xHis; label: Alexa Fluor 488 and Alexa Fluor 647 (labeled PCR primers); blunt
T4 sequence: T3 sequence

[8] = target: T5, WT SMARCAD1, dephosphorylated (human, UniProt Q9H4L7 1-1026, V974A); assay: as above; conditions: protein: recombinant; tags: 6xHis (C- or N-terminal); label: Alexa Fluor 488 and Alexa Fluor 647 (labeled PCR primers); blunt
T5 sequence: T1 sequence with V974A

Molecule: CGAGCCAGGCCTGAGAATCCGGTGCCGAGGCCGCTCAATTGGTCGTAGACAGCTCTAGCACCGCTTAAACGCACGTACGCGCTGTCCCCCGCGTTTTAACCGCCAAGGGGATTACTCCCTAGTCTCCAGGCACGTGTCAGATATATACATCCAGGCCTTGTGTCG (double strand) [165 bp 601 nucleosome (7N11)]
Kd ([1]; dephosphorylated (CIP)): 71 nM
Kd ([2]; phosphorylated): 213 nM
Kd [3]: 114 nM

ATP hydrolysis rate with nucleosome as activator (1 μM SMARCAD1, 1 μM nucleosome; NADH-coupled assay) [4]: 30 nM/s
Kd [5]: 151 nM
Molecule: phosphorylated wild type SMARCAD1 (from UniProt Q9H4L7 1-1026) (enzyme)

Molecule: CGAGCCAGGCCTGAGAATCCGGTGCCGAGGCCGCTCAATTGGTCGTAGACAGCTCTAGCACCGCTTAAACGCACGTACGCGCTGTCCCCCGCGTTTTAACCGCCAAGGGGATTACTCCCTAGTCTCCAGGCACGTGTCAGATATATACATCCAGGCCTTGTGTCG (double strand) [165 bp 601 DNA]
Kd [1]: 28 nM
Kd [2]: 49 nM

Kd [6]: 114 nM
Molecule: dephosphorylated Δ350 SMARCAD1 (from UniProt Q9H4L7 351-1026) (domain or fragment)

ATP hydrolysis rate with nucleosome as activator (1 μM SMARCAD1, 1 μM nucleosome; NADH-coupled assay) [4]: 118 nM/s
Kd [5]: 495 nM
Molecule: phosphorylated Δ350 SMARCAD1 (from UniProt Q9H4L7 351-1026) (domain or fragment)

B1: 165 bp 601 DNA (dsDNA)
DNA 1: CGAGCCAGGCCTGAGAATCCGGTGCCGAGGCCGCTCAATTGGTCGTAGACAGCTCTAGCACCGCTTAAACGCACGTACGCGCTGTCCCCCGCGTTTTAACCGCCAAGGGGATTACTCCCTAGTCTCCAGGCACGTGTCAGATATATACATCCAGGCCTTGTGTCG
DNA 2: CGACACAAGGCCTGGATGTATATATCTGACACGTGCCTGGAGACTAGGGAGTAATCCCCTTGGCGGTTAAAACGCGGGGGACAGCGCGTACGTGCGTTTAAGCGGTGCTAGAGCTGTCTACGACCAATTGAGCGGCCTCGGCACCGGATTCTCAGGCCTGGCTCG
Kd [7]: 60 ± 18 nM
Kd [8]: 26 ± 9 nM
